Measurements taken from paper doi:10.1101/216812.

Target: biotinylated, taxol-stabilized microtubules tethered to coverslips (TIRF binding assays)
Experiment: TIRF microscopy of single particles

549SNAP-6HIS-3FLAG-KKT4 charge-reversal mutant (R123E, K132E, R154E), full length (natural protein)
fold change of average residence time against wild-type KKT4: 2 fold

549SNAP-6HIS-3FLAG-KKT4, full-length wild-type KKT4 (natural protein)
average residence time: 5.4 s
